Reference: PMC10846153

Tested on: T1, OxyR (Reut_A2805) (Cupriavidus pinatubonensis), ORF:7651349a
T1 sequence: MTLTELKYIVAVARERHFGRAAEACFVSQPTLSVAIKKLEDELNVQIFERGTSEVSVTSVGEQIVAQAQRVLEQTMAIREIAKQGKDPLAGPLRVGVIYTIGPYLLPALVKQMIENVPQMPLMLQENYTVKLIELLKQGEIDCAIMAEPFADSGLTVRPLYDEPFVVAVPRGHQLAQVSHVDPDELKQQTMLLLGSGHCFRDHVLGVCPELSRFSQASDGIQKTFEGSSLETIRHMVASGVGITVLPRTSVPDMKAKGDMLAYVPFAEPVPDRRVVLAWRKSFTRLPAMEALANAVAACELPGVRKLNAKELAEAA
Assay: EMSA
Details: EMSA: 20 mM Tris pH 7.4, 4 mM MgCl2, 100 mM NaCl, 10% glycerol; 20 min at room temperature; 6% native PAGE with 5% glycerol in 0.5x TBE

For “AAATGCATCGCTCTCAGAATACCCAAAAATGAGCAATTCGATGCCATCGACTTTCGCGTTTCTGGCAACTTTGCGCGAACTGTAGAAAATACCGGATTACAGGTATTGTCCTGTCCAAGTCGCACAGCGTAAATTTCGCCTGACTTCCGTTGCGCAACCAACAGAAACACAAAGATT (double strand) [PT6SS1]”, the binding was “binds”.
